The chains are these.
T1: TROP2 on TROP2-positive NCI-H1975 cells (human, UniProt P09758 27-323)
T1 sequence: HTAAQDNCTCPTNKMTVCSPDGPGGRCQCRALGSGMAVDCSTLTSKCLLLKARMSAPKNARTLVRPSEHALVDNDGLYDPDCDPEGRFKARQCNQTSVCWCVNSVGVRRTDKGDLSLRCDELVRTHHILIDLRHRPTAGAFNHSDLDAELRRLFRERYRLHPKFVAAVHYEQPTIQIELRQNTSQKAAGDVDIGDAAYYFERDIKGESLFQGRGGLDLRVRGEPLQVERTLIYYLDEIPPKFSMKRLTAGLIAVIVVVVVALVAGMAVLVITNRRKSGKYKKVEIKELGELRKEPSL

B1: MYT13290 (antibody, V domains shown)
VH: QVQLQESGPGLVKPSETLSLTCTVSGGSISSYGVHWIRQPPGKGLEWIGVIWTSGVTDYNSALMGRVTISVDTSKNQFSLKLSSVTAADTAVYYCARDGDYDRYTHDYWGQGTLVTVSS
VL: DIVMTQSPDSLAVSLGERATINCRASKSVSTSGYSYMHWYQQKPGQPPKLLIYLASNLESGVPDRFSGSGSGTDFTLTISSLQAEDVAVYYCHHSRELPYTFGQGTKLEIK
B2: MYT13288 (antibody, V domains shown)
VH: B1 VH with D102H, H106M
VL: B1 VL
B3: MYT13299 (antibody, V domains shown)
VH: B1 VH with R103H, H106M
VL: B1 VL with H93Q, E97H
B4: MYT13285 (antibody, V domains shown)
VH: B1 VH
VL: B1 VL with S60H, H93Q
B5: MYT13289 (antibody, V domains shown)
VH: B1 VH with R103H, H106M
VL: B1 VL
B6: MYT13283 (antibody, V domains shown)
VH: B1 VH with D102H, H106M
VL: B1 VL with S60H, H93Q
B7: MYT13298 (antibody, V domains shown)
VH: B1 VH with D102H, H106M
VL: B1 VL with H93Q, E97H
B8: MYT13446 (antibody, V domains shown)
VH: B1 VH with R103H, H106M
VL: B1 VL with E59H, H93Q, T101H
B9: MYT13279 (antibody, V domains shown)
VH: B1 VH with R103H, H106M
VL: B1 VL with E59H, H93Q
B10: MYT13300 (antibody, V domains shown)
VH: B1 VH
VL: B1 VL with H93Q, E97H
B11: MYT13435 (antibody, V domains shown)
VH: QVQLQQSGSELKKPGASVKVSCKASGYTFTNYGMNWVKQAPGQGLKWMGWINTYTGEPTYTDDHKGRFAFSLDTSVSTAYLQISSLKADDTAVYFCARGGFGSSYWYFDVWGQGSLVTVSS
VL: DIQLTQSPSSLSASVGDRVSITCKASQDVSIAVAWYQQKPGKAPKLLIYSHSHRYTGVPDRFSGSGSGTDFTLTISSLQPEDFAVYYCQQHYHTPLTFGAGTKVEIK
B12: MYT13392 (antibody, V domains shown)
VH: B11 VH with Y60H, H64F
VL: B11 VL with V33H, H51A, H93I
B13: MYT13416 (antibody, V domains shown)
VH: B11 VH with Y60H, H64F
VL: B11 VL with S30H, H53Y, Q89H, H93I
B14: MYT13422 (antibody, V domains shown)
VH: B11 VH with Y32H, H64F
VL: B11 VL with S30H, H53Y
B15: MYT13388 (antibody, V domains shown)
VH: B11 VH with H64F, K65H
VL: B11 VL with S30H, H51A, S52H, H53Y, H93I
B16: MYT13405 (antibody, V domains shown)
VH: B11 VH with H64F, G66H
VL: B11 VL with V33H, H51A, H53Y
B17: MYT13398 (antibody, V domains shown)
VH: B11 VH with Y32H, H64F
VL: B11 VL with V33H, H51A, H53Y
B18: MYT13403 (antibody, V domains shown)
VH: B11 VH
VL: B11 VL with V33H, H51A, H53Y
B19: MYT13413 (antibody, V domains shown)
VH: B11 VH with H64F, G66H
VL: B11 VL with S52H, H53Y, H93I
B20: MYT13395 (antibody, V domains shown)
VH: B11 VH
VL: B11 VL with V33H, H51A, H93I
B21: MYT13401 (antibody, V domains shown)
VH: B11 VH with D62H, H64F
VL: B11 VL with V33H, H51A, H53Y
B22: MYT13404 (antibody, V domains shown)
VH: B11 VH with H64F, K65H
VL: B11 VL with V33H, H51A, H53Y
B23: MYT13402 (antibody, V domains shown)
VH: B11 VH with D63H, H64F
VL: B11 VL with V33H, H51A, H53Y
B24: MYT13400 (antibody, V domains shown)
VH: B11 VH with Y60H, H64F
VL: B11 VL with V33H, H51A, H53Y
B25: MYT13377 (antibody, V domains shown)
VH: B11 VH with D62H, H64F
VL: B11 VL with S30H, H53Y, H93I
B26: MYT13372 (antibody, V domains shown)
VH: B11 VH with H64F, K65H
VL: B11 VL with S30H, V33H, H51A, H53Y, H93I

Positions count from the first letter of the chain named.

This assay deals with T1, TROP2 on TROP2-positive NCI-H1975 cells. As to the kind of experiment: cell-based or functional assay.
For the molecule B1, the “FOW H1975 (10 nM)” value was 1.7 fold over parent antibody.

Consider B2, for which the “FOW H1975 (10 nM)” value is 1.15 fold over parent antibody.

In the case of B3, the “FOW H1975 (10 nM)” value turned out to be 1.35 fold over parent antibody.

B4: the “FOW H1975 (10 nM)” value came out at 1.61 fold over parent antibody.

For the molecule B5, the “FOW H1975 (10 nM)” value turned out to be 1.37 fold over parent antibody.

As for B6, the “FOW H1975 (10 nM)” value turned out to be 1.51 fold over parent antibody.

Regarding B7, the “FOW H1975 (10 nM)” value amounted to 1.59 fold over parent antibody.

For the molecule B8, the “FOW H1975 (10 nM)” value turned out to be 1.09 fold over parent antibody.

B9: the “FOW H1975 (10 nM)” value is 1.37 fold over parent antibody.

Take B10: the “FOW H1975 (10 nM)” value was 1.39 fold over parent antibody.

In the case of B11, the “FOW H1975 (10 nM)” value turned out to be 1.33 fold over parent antibody.

For B12, the “FOW H1975 (10 nM)” value came to 1.19 fold over parent antibody.

For the molecule B13, the “FOW H1975 (10 nM)” value came out at 1.29 fold over parent antibody.

As to B14, the “FOW H1975 (10 nM)” value was determined as 1.13 fold over parent antibody.

Take B15: the “FOW H1975 (10 nM)” value was determined as 1.24 fold over parent antibody.

In the case of B16, the “FOW H1975 (10 nM)” value was determined as 1.16 fold over parent antibody.

Regarding B17, the “FOW H1975 (10 nM)” value worked out at 1.07 fold over parent antibody.

B18: the “FOW H1975 (10 nM)” value amounted to 1.13 fold over parent antibody.

Take B19: the “FOW H1975 (10 nM)” value worked out at 1.06 fold over parent antibody.

In the case of B20, the “FOW H1975 (10 nM)” value was 1.29 fold over parent antibody.

B21: the “FOW H1975 (10 nM)” value was determined as 1.16 fold over parent antibody.

Take B22: the “FOW H1975 (10 nM)” value is 1.08 fold over parent antibody.

As to B23, the “FOW H1975 (10 nM)” value was 1.1 fold over parent antibody.

As for B24, the “FOW H1975 (10 nM)” value turned out to be 1.13 fold over parent antibody.

Consider B25, for which the “FOW H1975 (10 nM)” value came to 1.26 fold over parent antibody.

B26: the “FOW H1975 (10 nM)” value turned out to be 1.18 fold over parent antibody.
